Consider 2 substances from publication doi:10.1101/2022.01.21.477187.

This test deals with GMPCPP-stabilised rhodamine microtubules. Briefly: single-molecule TIRF motility assay.

Consider “CENP-E483 with a GCN4 leucine zipper domain fused to its C terminus (from UniProt Q02224 1-483)”, for which the residency time on the microtubule amounted to 6.36 s.
The substance “full-length human CENP-E-mNeonGreen, Q02224 1-2701” displayed a landing rate (events μm^−1 min^−1) of 0.147, a processive landing rate (events μm^−1 min^−1) of 0.009 and a residency time on the microtubule of 37.1 s.
